pKd: −log10 of the molar value.
Target: Bcl-XL-126Bpa (UniProt Q07817)
Assay: BLI

Chain of UniProt Q07817 (Q07817 whole entry): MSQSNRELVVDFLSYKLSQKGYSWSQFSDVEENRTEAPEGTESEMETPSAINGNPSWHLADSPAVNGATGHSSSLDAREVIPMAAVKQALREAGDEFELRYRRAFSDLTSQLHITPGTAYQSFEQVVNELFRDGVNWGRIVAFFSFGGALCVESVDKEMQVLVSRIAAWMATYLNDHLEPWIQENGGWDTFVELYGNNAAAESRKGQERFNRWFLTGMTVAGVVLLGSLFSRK

- pKd: 5.75
Substance: Bid-83Bpa (from UniProt P55957 1-195) (natural protein)

— paper PMC12874534
